Assay results as given in article PMC8262862, “A Prevalent Focused Human Antibody Response to the Influenza Virus Hemagglutinin Head Interface” (mBio, 2021).

B1: D1 H1-17/H3-14 Fab, His-tagged (binding studies) (Fab, V domains shown)
VH: QVQLQESGPGLVKPSESLSLTCSVSGGSVSSNLHYWSWIRQLPGKGLEWIGYISYTGSTKYNPSLNGRVTLSIDASKNQFSLELSSVTAADTAVYYCARDFFEKLIADDLNAFDIWGQGTMVTVSG
VL: DIRVTQSPSSLSASVGDRVTITCRASQSISRSLNWYQQRPGKAPKFLIYAASNLQSGVPSRFSGGGSGTDFTLTISSLQPEDFATYYCQETYSRTFGQGTKADIK
notes: not shown: His6, C-terminal, kept
B2: D2 H1-1/H3-1 Fab, His-tagged (binding studies) (Fab, V domains shown)
VH: QVQLVQSGGGLVRPGGSLRLSCAASGFTFSSAWMTWVRQAPGKGLEWVANIKEDGSEKYYVDSVKGRFSISRDNAKNSLYLQISSLRAEDTAVYYCARRFVERLWGQSKPYDAVDIWGQGTMVTVSG
VL: DIQMTQSPSSLSASVGDRVTITCRASQSISNYLNWYQQKPGKAPKLLIYVASNLQSGVPSRFSGSGSGTDFALTISSLQPEDFASYYCQQSYSPVTTFGGGTKVEIK
notes: as for B1
B3: H2214 Fab, His tag removed (competitor in BLI) (Fab, V domains shown)
VH: EVQLLESGGGLVQPGGSLRLSCAASGFTFNHYAMTWVRQAPGKGLEWVASSSGSGRSTYYTDSVKGRFSVSRDNSKNTLYLQMNSLRAEDTAVYYCAKSSNYYGSGSYSPDDYYHMDVWGQGTTVTVSG
VL: EIVMTQSPDTLSVSPGERATLSCRASESISSNLAWYQQKPGQVPRLLIYGASTRATGVPARFTGSGSGTEFTLTISSLQSEDFAVYYCQQYNNRLPYTFGQGTKLEIK

Target: T1, HA head domain of A/Texas/50/2012(H3N2), monomeric (Influenza A virus A/Texas/50/2012(H3N2), strain)
T1 construct: also called monomeric HA heads
Assay: BLI
Details: both partners purified

Row | Binder | binding result
1 | B1 | binds
2 | B2 | binds
3 | B3 | binds
